Experimental data as given in patent US20220017960.
Residue numbers refer to the chain shown, from its start. Names may count otherwise.

B1: Xpress (Xpr)-tagged human USP15 wild type (WT) (protein)
chain: AEGGAADLDTQRSDIATLLKTSLRKGDTWYLVDSRWFKQWKKYVGFDSWDKYQMGDQNVYPGPIDNSGLLKDGDAQSLKEHLIDELDYILLPTEGWNKLVSWYTLMEGQEPIARKVVEQGMFVKHCKVEVYLTELKLCENGNMNNVVTRRFSKADTIDTIEKEIRKIFSIPDEKETRLWNKYMSNTFEPLNKPDSTIQDAGLYQGQVLVIEQKNEDGTWPRGPSTPNVKNSNYCLPSYTAYKNYDYSEPGRNNEQPGLCGLSNLGNTCFMNSAIQCLSNTPPLTEYFLNDKYQEELNFDNPLGMRGEIAKSYAELIKQMWSGKFSYVTPRAFKTQVGRFAPQFSGYQQQDCQELLAFLLDGLHEDLNRIRKKPYIQLKDADGRPDKVVAEEAWENHLKRNDSIIVDIFHGLFKSTLVCPECAKISVTFDPFCYLTLPLPMKKERTLEVYLVRMDPLTKPMQYKVVVPKIGNILDLCTALSALSGIPADKMIVTDIYNHRFHRIFAMDENLSSIMERDDIYVFEININRTEDTEHVIIPVCLREKFRHSSYTHHTGSSLFGQPFLMAVPRNNTEDKLYNLLLLRMCRYVKISTETEETEGSLHCCKDQNINGNGPNGIHEEGSPSEMETDEPDDESSQDQELPSENENSQSEDSVGGDNDSENGLCTEDTCKGQLTGHKKRLFTFQFNNLGNTDINYIKDDTRHIRFDDRQLRLDERSFLALDWDPDLKKRYFDENAAEDFEKHESVEYKPPKKPFVKLKDCIELFTTKEKLGAEDPWYCPNCKEHQQATKKLDLWSLPPVLVVHLKRFSYSRYMRDKLDTLVDFPINDLDMSEFLINPNAGPCRYNLIAVSNHYGGMGGGHYTAFAKNKDDGKWYYFDDSSVSTASEDQIVSKAAYVLFYQRQDTFSGTGFFPLDRETKGASAATGIPLESDEDSNDNDNDIENENCMHTN
B2: Xpress (Xpr)-tagged human USP15 mutant (L720R) (protein)
chain: B1 chain with L719R

Biological target: FLAG-tagged TRIM25, Q14258
Sequence (Q14258 whole entry): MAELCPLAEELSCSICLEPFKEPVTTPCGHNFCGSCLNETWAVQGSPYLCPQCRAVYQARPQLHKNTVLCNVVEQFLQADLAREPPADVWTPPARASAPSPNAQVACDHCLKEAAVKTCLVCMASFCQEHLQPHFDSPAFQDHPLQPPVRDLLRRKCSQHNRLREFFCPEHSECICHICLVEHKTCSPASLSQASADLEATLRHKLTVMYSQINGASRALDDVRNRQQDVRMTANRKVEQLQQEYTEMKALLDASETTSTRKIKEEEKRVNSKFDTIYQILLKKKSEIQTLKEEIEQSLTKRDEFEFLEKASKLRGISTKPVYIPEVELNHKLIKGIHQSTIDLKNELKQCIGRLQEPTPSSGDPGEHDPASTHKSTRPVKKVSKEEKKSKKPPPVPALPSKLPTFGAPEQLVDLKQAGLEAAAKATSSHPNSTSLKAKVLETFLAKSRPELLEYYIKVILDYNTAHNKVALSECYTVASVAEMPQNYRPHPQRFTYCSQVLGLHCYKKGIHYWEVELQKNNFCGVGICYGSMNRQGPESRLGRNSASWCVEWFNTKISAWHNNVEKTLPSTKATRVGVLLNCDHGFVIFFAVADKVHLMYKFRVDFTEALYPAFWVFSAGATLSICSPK

Row | Protein | deubiquitination of TRIM25 (anti-FLAG immunoprecipitation, immunoblot with anti-ubiquitin and anti-TRIM25 antibodies) | deubiquitinase activity towards TRIM25 (anti-FLAG immunoprecipitation, immunoblot with anti-ubiquitin and anti-TRIM25 antibodies)
1 | B1 | we observed that TRIM25 is a target for deubiquitination by USP15 | –
2 | B2 | – | we observed a reduced deubiquitinase activity in the L749R variant (the corresponding human L720R isoform was tested), when compared to WT
